Key:
pNP-C8 [1] = assay: Proxy for plastic degradation [p-nitrophenol (pNP) release] (% relative activity)
pNP-C8 [2] = assay: Proxy for plastic degradation [Relative activity]
PET = assay: Proxy for plastic degradation [Released monomer concentration (HPLC/LC-MS) (MHET+TPA+BHET)]; conditions: pH 8
BHET = conditions: pH 7; 40 °C; part of the chain shown
p-NP-C2 = conditions: pH 7; 40 °C; part of the chain shown
p-NP-C4 = conditions: pH 7; 40 °C; part of the chain shown

B1: unnamed (protein)
chain: MNFPRASRLMQAAVLGGLMAVSAAATAQTNPYARGPNPTAASLEASAGPFTVRSFTVSRPSGYGAGTVYYPTNAGGTVGAIAIVPGYTARQSSIKWWGPRLASHGFVVITIDTNSTLDQPSSRSSQQMAALRQVASLNGTSSSPIYGKVDTARMGVMGWSMGGGGSLISAANNPSLKAAAPQAPWDSSTNFSSVTVPTLIFACENDSIAPVNSSALPIYDSMSRNAKQFLEINGGSHSCANSGNSNQALIGKKGVAWMKRFMDNDTRYSTFACENPNSTRVSDFRTANCS
Proxy for plastic degradation (pNP-C8 [1]; pH 3, part of the chain shown): 10 | Proxy for plastic degradation (pNP-C8 [1]; pH 4, part of the chain shown): 17 | Proxy for plastic degradation (pNP-C8 [1]; pH 5, part of the chain shown): 62 | Proxy for plastic degradation (pNP-C8 [1]; pH 6, part of the chain shown): 94 | Proxy for plastic degradation (pNP-C8 [1]; pH 7, part of the chain shown): 98 | Proxy for plastic degradation (pNP-C8 [1]; pH 8, 5 °C, part of the chain shown): 100 | Proxy for plastic degradation (pNP-C8 [1]; pH 8, 30 °C, part of the chain shown): 80 | Proxy for plastic degradation (pNP-C8 [1]; pH 8, 35 °C, part of the chain shown): 100 | Proxy for plastic degradation (pNP-C8 [1]; pH 8, part of the chain shown): 100 | Proxy for plastic degradation (pNP-C8 [1]; pH 9, part of the chain shown): 96 | Proxy for plastic degradation (pNP-C8 [1]; pH 10, part of the chain shown): 69

B2: unnamed (protein)
chain: MDGVLWRVRTAALMAALLALAAWALVWASPSVEAQSNPYQRGPNPTRSALTADGPFSVATYTVSRLSVSGFGGGVIYYPTGTSLTFGGIAMSPGYTADASSLAWLGRRLASHGFVVLVINTNSRFDYPDSRASQLSAALNYLRTSSPSAVRARLDANRLAVAGHSMGGGGTLRIAEQNPSLKAAVPLTPWHTDKTFNTSVPVLIVGAEADTVAPVSQHAIPFYQNLPSTTPKVYVELDNASHFAPNSNNAAISVYTISWMKLWVDNDTRYRQFLCNVNDPALSDFRTNNRHCQ
Proxy for plastic degradation (pNP-C8 [1]; pH 3): 0 | Proxy for plastic degradation (pNP-C8 [1]; pH 4): 17 | Proxy for plastic degradation (pNP-C8 [1]; pH 5): 69 | Proxy for plastic degradation (pNP-C8 [1]; pH 6): 100 | Proxy for plastic degradation (pNP-C8 [1]; pH 7): 100 | Proxy for plastic degradation (pNP-C8 [1]; pH 8): 89 | Proxy for plastic degradation (pNP-C8 [1]; pH 8, 5 °C): 100 | Proxy for plastic degradation (pNP-C8 [1]; pH 8, 30 °C): 32 | Proxy for plastic degradation (pNP-C8 [1]; pH 8, 35 °C): 47 | Proxy for plastic degradation (pNP-C8 [1]; pH 9): 54 | Proxy for plastic degradation (pNP-C8 [1]; pH 10): 0

B3: unnamed (protein)
chain: SNPYQRGPNPTRSALTADGPFSVATYTVSRLSVSGFGGGVIYYPTGTSLTFGGIAMSPGYTADASSLAWLGRRLASHGFVVLVINTNSRFDYPDSRASQLSAALNYLRTSSPSAVRARLDANRLAVAGHSMGGGGTLRIAEQNPSLKAAVPLTPWHTDKTFNTSVPVLIVGAEADTVAPVSQHAIPFYQNLPSTTPKVYVELDNASHFAPNSNNAAISVYTISWMKLWVDNDTRYRQFLCNVNDPALSDFRTNNRHCQ
Proxy for plastic degradation (pNP-C8 [2]; 5 °C, part of the chain shown): 100% | Proxy for plastic degradation (pNP-C8 [2]; 30 °C, part of the chain shown): 35% | Proxy for plastic degradation (pNP-C8 [2]; 35 °C, part of the chain shown): 48% | Proxy for plastic degradation (pNP-C8 [2]; pH 3, part of the chain shown): 0% | Proxy for plastic degradation (pNP-C8 [2]; pH 4, part of the chain shown): 20% | Proxy for plastic degradation (pNP-C8 [2]; pH 5, part of the chain shown): 70% | Proxy for plastic degradation (pNP-C8 [2]; pH 6, part of the chain shown): 100% | Proxy for plastic degradation (pNP-C8 [2]; pH 7, part of the chain shown): 100% | Proxy for plastic degradation (pNP-C8 [2]; pH 8, part of the chain shown): 90% | Proxy for plastic degradation (pNP-C8 [2]; pH 9, part of the chain shown): 55% | Proxy for plastic degradation (pNP-C8 [2]; pH 10, part of the chain shown): 0% | Proxy for plastic degradation (PET; 30 °C, part of the chain shown): 0 mM | Proxy for plastic degradation (PET; 40 °C, part of the chain shown): 0.4 mM | Proxy for plastic degradation (PET; 50 °C, part of the chain shown): 1.5 mM | Proxy for plastic degradation (PET; 60 °C, part of the chain shown): 3.8 mM | Proxy for plastic degradation (PET; 70 °C, part of the chain shown): 5.8 mM | Proxy for plastic degradation (PET; 80 °C, part of the chain shown): 4 mM

B4: unnamed (protein)
chain: QSNPYQRGPNPTRSALTTDGPFSVATYSVSRLSVSGFGGGVIYYPTGTTLTFGGIAMSPGYTADASSLAWLGRRLASHGFVVIVINTNSRLDFPDSRASQLSAALNYLRTSSPSAVRARLDANRLAVAGHSMGGGATLRISEQIPTLKAGVPLTPWHTDKTFNTPVPQLIVGAEADTVAPVSQHAIPFYQNLPSTTPKVYVELDNATHFAPNSPNAAISVYTISWMKLWVDNDTRYRQFLCNVNDPALSDFRSNNRHCQ
Km (BHET): 16800 µM | kcat (BHET): 7.3 s⁻¹ | kcat/Km (BHET): 435 M⁻¹ s⁻¹ | Km (p-NP-C2): 1150 µM | kcat (p-NP-C2): 131 s⁻¹ | kcat/Km (p-NP-C2): 114000 M⁻¹ s⁻¹ | Km (p-NP-C4): 300 µM | kcat (p-NP-C4): 53.9 s⁻¹ | kcat/Km (p-NP-C4): 180000 M⁻¹ s⁻¹

B5: unnamed (protein)
chain: MNFPRASRLMQAAVLGGLMAVSAAATAQTNPYARGPNPTAASLEASAGPFTVRSFTVSRPSGYGAGTVYYPTNAGGTVGAIAIVPGYTARQSSIKWWGPRLASHGFVVITIDTNSTLDQPSSRSSQQMAALRQVASLNGTSSSPIYGKVDTARMGVMGWSMGGGGSLISAANNPSLKAAAPQAPWDSSTNFSSVTVPTLIFACENDSIAPVNSSALPIYDSMSRNAKQFLEINGGSHSCANSGNSNQALIGKKGVAWMKRFMDNDTRYSTFACENPNSTRVSDFRTANCSLEHHHHHH
Proxy for plastic degradation (pNP-C8 [2]; 5 °C): 100% | Proxy for plastic degradation (pNP-C8 [2]; 30 °C): 80% | Proxy for plastic degradation (pNP-C8 [2]; 35 °C): 100% | Proxy for plastic degradation (pNP-C8 [2]; pH 3): 10% | Proxy for plastic degradation (pNP-C8 [2]; pH 4): 20% | Proxy for plastic degradation (pNP-C8 [2]; pH 5): 65% | Proxy for plastic degradation (pNP-C8 [2]; pH 6): 95% | Proxy for plastic degradation (pNP-C8 [2]; pH 7): 98% | Proxy for plastic degradation (pNP-C8 [2]; pH 8): 100% | Proxy for plastic degradation (pNP-C8 [2]; pH 9): 95% | Proxy for plastic degradation (pNP-C8 [2]; pH 10): 70% | Proxy for plastic degradation (PET; 30 °C): 1.8 mM | Proxy for plastic degradation (PET; 40 °C): 2.2 mM | Proxy for plastic degradation (PET; 50 °C): 0.8 mM | Proxy for plastic degradation (PET; 60 °C): 0.4 mM | Proxy for plastic degradation (PET; 70 °C): 0.2 mM | Proxy for plastic degradation (PET; 80 °C): 0.1 mM

B6: unnamed (protein)
chain: MQVVLGRVRSAGLLAALLALAAWALVWASPSAEAQSNPYQRGPNPTRSALTTDGPFSVATYSVSRLSVSGFGGGVIYYPTGTTLTFGGIAMSPGYTADASSLAWLGRRLASHGFVVIVINTNSRLDFPDSRASQLSAALNYLRTSSPSAVRARLDANRLAVAGHSMGGGATLRISEQIPTLKAGVPLTPWHTDKTFNTPVPQLIVGAEADTVAPVSQHAIPFYQNLPSTTPKVYVELDNATHFAPNSPNAAISVYTISWMKLWVDNDTRYRQFLCNVNDPALSDFRSNNRHCQ
Proxy for plastic degradation (pNP-C8 [2]; 5 °C): 100% | Proxy for plastic degradation (pNP-C8 [2]; 30 °C): 20% | Proxy for plastic degradation (pNP-C8 [2]; 35 °C): 30% | Proxy for plastic degradation (pNP-C8 [2]; pH 3): 0% | Proxy for plastic degradation (pNP-C8 [2]; pH 4): 20% | Proxy for plastic degradation (pNP-C8 [2]; pH 5): 70% | Proxy for plastic degradation (pNP-C8 [2]; pH 6): 95% | Proxy for plastic degradation (pNP-C8 [2]; pH 7): 100% | Proxy for plastic degradation (pNP-C8 [2]; pH 8): 100% | Proxy for plastic degradation (pNP-C8 [2]; pH 9): 90% | Proxy for plastic degradation (pNP-C8 [2]; pH 10): 15% | Proxy for plastic degradation (pNP-C8 [1]; pH 3): 0 | Proxy for plastic degradation (pNP-C8 [1]; pH 4): 17 | Proxy for plastic degradation (pNP-C8 [1]; pH 5): 69 | Proxy for plastic degradation (pNP-C8 [1]; pH 6): 94 | Proxy for plastic degradation (pNP-C8 [1]; pH 7): 100 | Proxy for plastic degradation (pNP-C8 [1]; pH 8): 100 | Proxy for plastic degradation (pNP-C8 [1]; pH 8, 5 °C): 100 | Proxy for plastic degradation (pNP-C8 [1]; pH 8, 30 °C): 21 | Proxy for plastic degradation (pNP-C8 [1]; pH 8, 35 °C): 30 | Proxy for plastic degradation (pNP-C8 [1]; pH 9): 88 | Proxy for plastic degradation (pNP-C8 [1]; pH 10): 11 | Proxy for plastic degradation (PET; 30 °C): 0 mM | Proxy for plastic degradation (PET; 40 °C): 0.2 mM | Proxy for plastic degradation (PET; 50 °C): 1.1 mM | Proxy for plastic degradation (PET; 60 °C): 3.8 mM | Proxy for plastic degradation (PET; 70 °C): 6.2 mM | Proxy for plastic degradation (PET; 80 °C): 4.9 mM

From the PETadex activity labels (doi:10.1016/j.enzmictec.2020.109715)
